Values quoted from earlier work as cited in publication PMC7600996.

Molecular target: RseA (Escherichia coli) (UniProt P0AFX7)
UniProt P0AFX7, sequence (P0AFX7 whole entry): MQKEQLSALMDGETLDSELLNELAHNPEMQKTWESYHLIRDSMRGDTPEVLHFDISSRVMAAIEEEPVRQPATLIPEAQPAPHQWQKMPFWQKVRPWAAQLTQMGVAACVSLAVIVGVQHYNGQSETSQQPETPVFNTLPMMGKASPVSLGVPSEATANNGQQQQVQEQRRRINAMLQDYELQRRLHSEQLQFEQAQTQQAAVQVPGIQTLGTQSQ

## RpoE (sigma E) (from UniProt P0AGB6)
  Kd: 0.2 nM
